# Results from patent US20230374148A1, “BINDING MOLECULES THAT MULTIMERISE CD45” (UCB BIOPHARMA SRL, priority 2020, published 2023).
# System: Human whole blood
# Assay: Cytokine release in whole blood at 24 hrs, MSD assay
# Format: cell-based
# Description: Human whole blood (Lithium heparin tubes) was taken from one donor (HTA #031219-06) at UCB Pharma Slough, UK according to approved ethical sample collection protocol.
# In a Greiner 96-well non-binding microplate, Fab-X and Fab-Y combination 6294-X/4133-Y was added to PBS to give a Fab-KD-Fab concentration of 2000 nM. Similarly, stocks of 4133-6294 BYbe and NegCtrl BYbe were prepared in PBS at 2000 nM. The microplate was incubated for 1 hr at 37° C., 5% CO2. Following the incubation, Fab-KD-Fab and BYbe reagents were then serially diluted in PBS 1 in 5, seven times to produce to form an 8-point dose curve.
# 12.5 μl of Fab-KD-Fab or BYbe dilution was transferred into Corning Costar 96-well, cell culture treated, U-shaped-bottom microplate (cat no. 07-200-95) and 237.5 μl of whole blood added to each well. Final well concentrations of Fab-KD-Fab or BYbes were 100-0.00128 nM. […]
# Measurement of cytokines was carried out using the V-PLEX Human Proinflammatory Panel I (4-Plex) (IFN-γ, IL-1β, IL-6, TNF-α, cat no. K15052D, Meso Scale Discovery) according to manufacturer's instructions. […] The plates were washed as before, and 150 μl of read buffer (diluted 1 in 2 in dH2O) was added to each well. The plates were then analysed on a SECTOR Imager 6000 (Meso Scale Discovery).
Molecule,"levels of IL-1β (Campath 10 μg/ml, other reagents 100-0.00128 nM)","induction of inflammatory cytokines (IFN-γ, IL-6, TNF-α) (100-0.00128 nM, compared with PBS- and NegCtrl BYbe-treated wells)"
"Campath: anti-CD52, clinical grade, indicated by FDA for B-cell Chronic Lymphocytic Leukaemia; positive control [reference compound]",marked level,–
4133-6294 BYbe: anti-CD45 BYbe (Fab-scFv): 4133 Fab HC-G4S linker-6294 scFv heavy chain paired with 4133 light chain (antibody) heavy: QEQLVESGGGLVQPEGSLTLTCTASGFSFSGNYYMCWVRQAPGKGLEWIGCLYTGSSGSTYYASWAKGRFTISKTSSTTVTLQMTSLTAADTATYFCARDLGYEIDGYGGLWGQGTLVTVSSGQPKAPSVFPLAPCCGDTPSSTVTLGCLVKGYLPEPVTVTWNSGTLTNGVRTFPSVRQSSGLYSLSSVVSVTSSSQPVTCNVAHPATNTKVDKTVAPSTCSKPGGGGSGGGGSEVQLVESGAELARPGASVKMSCKASGYTFTSYTMHWVKQRPGQCLEWIGYINPSSGYTEYNQKFKDKTTLTADKSSSTAYLQLSSLTSEDSAVYYCARVGDGFYPSWLAYWGQGTLVTVSSGGGGSGGGGSGGGGSGGGGSDIQMTQSPKFLLVSAGDRVTITCKASQSVRNDVAWYQQKPGQSPKLLIFYASKRYTGVPDRFTGSGYGTDFTFTISTVQAEDLAVYFCQQDYSSPTTFGCGTKLEIK light: AQVLTQTPSPVSAVVGGTVSISCQASQSVYNNNNLSWYQQKPGQPPKLLIYDASKLASGVPSRFKGSGSGTQFTLTISGVQCDDAATYYCLGGYYSSGWYFAFGGGTKVVVKRTPVAPTVLIFPPAADQVATGTVTIVCVANKYFPDVTVTWEVDGTTQTTGIENSKTPQNSADCTYNLSSTLTLTSTQYNSHKEYTCKVTQGTTSVVQSFNRGDC,–,little or no induction
